Results: article doi:10.1101/2020.07.02.184341, “Contact with the CsrA core is required for allosteric inhibition by FliW in Bacillus subtilis” (bioRxiv, 2020)

T1: purified untagged wild-type FliW (FliW^WT) (B. subtilis, UniProt P96503 1-143)
T1 construct: FliW, Bacillus subtilis; also called His6-SUMO-FliW^WT before cleavage; source: E. coli Rosetta gami, purified (Ni-NTA, size exclusion chromatography, SUMO tag cleaved)
T1 sequence (looked up): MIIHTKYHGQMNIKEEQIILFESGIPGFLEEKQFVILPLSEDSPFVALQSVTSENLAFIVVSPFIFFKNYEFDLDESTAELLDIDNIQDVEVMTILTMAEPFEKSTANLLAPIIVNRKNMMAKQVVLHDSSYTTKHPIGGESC

T2: purified FliW^K123E (B. subtilis, UniProt P96503 1-143, K123E)
T2 construct: FliW, Bacillus subtilis, with K123E; cloned in pTB146 (SapI/XhoI); source: E. coli Rosetta gami, purified (Ni-NTA, size exclusion chromatography, SUMO tag cleaved)
T2 sequence (looked up): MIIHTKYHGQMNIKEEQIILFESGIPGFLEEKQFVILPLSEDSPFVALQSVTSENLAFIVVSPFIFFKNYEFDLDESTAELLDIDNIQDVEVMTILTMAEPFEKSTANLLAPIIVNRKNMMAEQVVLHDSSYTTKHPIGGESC


Experiments:
[1] = target: T1, purified untagged wild-type FliW …; test: pull-down; 0.25 uM GST-CsrA (WT or D41K) on Glutathione-Sepharose beads; FliW at 0.125, 0.167, 0.25, 0.333 and 0.5 uM, 2 h at 4 C in T(0.1) buffer (25 mM Tris-HCl pH 8.0, 20% glycerol, 100 mM NaCl, 1 mM DTT, 1 mg/mL BSA); 4 washes; supernatant and pellet on Western blots; conditions: both partners purified
purified FliW^K123E = target: T2, purified FliW^K123E; test: as above; conditions: both partners purified

Row | binding result [1] | binding result (purified FliW^K123E) | Binder
1 | binds | – | GST tagged CsrA (GST-CsrA^WT) (natural protein, B. subtilis, UniProt P33911 1-74, looked up, CsrA, Bacillus subtilis, fused to GST; The D41K form was cloned in pGEX-2TK; source: E. coli Rosetta gami, purified (Glutathione-Sepharose, size exclusion chromatography)) MLVLSRKINEAIQIGADIEVKVIAVEGDQVKLGIDAPKHIDIHRKEIYLTIQEENNRAAALSSDVISALSSQKK
2 | – | binds | GST-CsrA^D41K (natural protein, B. subtilis, UniProt P33911 1-74, looked up, CsrA, Bacillus subtilis, with D41K, translational fusion to the GST tag in pGEX-2TK (BamHI/EcoRI); source: E. coli Rosetta gami, purified (Glutathione-Sepharose, size exclusion chromatography)) MLVLSRKINEAIQIGADIEVKVIAVEGDQVKLGIDAPKHIKIHRKEIYLTIQEENNRAAALSSDVISALSSQKK
